{"source": "patent US20260083855A1", "test_in_all_cases": "cell-based or functional assay", "key": {"[1]": {"molecular_target": "IL-2R on human cells (activated CD4 T cells, PBMC subsets, NK92) (human) (UniProt P14784)", "sequence (P14784 27-551, chain 1 of 2)": "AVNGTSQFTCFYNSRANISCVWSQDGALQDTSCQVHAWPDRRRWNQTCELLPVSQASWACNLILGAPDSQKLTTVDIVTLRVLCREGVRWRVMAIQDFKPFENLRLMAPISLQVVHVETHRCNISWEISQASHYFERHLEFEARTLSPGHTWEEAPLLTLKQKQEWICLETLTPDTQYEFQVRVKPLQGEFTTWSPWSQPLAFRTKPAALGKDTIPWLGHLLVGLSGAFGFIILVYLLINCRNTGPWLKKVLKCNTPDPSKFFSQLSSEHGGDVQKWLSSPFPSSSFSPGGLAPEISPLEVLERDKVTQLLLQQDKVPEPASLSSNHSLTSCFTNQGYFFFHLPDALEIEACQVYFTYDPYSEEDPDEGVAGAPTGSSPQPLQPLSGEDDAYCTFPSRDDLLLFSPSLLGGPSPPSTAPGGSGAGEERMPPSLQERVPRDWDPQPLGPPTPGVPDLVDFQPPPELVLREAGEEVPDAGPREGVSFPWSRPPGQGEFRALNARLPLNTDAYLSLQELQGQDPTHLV", "sequence (P31785 23-369, chain 2 of 2, further chain)": "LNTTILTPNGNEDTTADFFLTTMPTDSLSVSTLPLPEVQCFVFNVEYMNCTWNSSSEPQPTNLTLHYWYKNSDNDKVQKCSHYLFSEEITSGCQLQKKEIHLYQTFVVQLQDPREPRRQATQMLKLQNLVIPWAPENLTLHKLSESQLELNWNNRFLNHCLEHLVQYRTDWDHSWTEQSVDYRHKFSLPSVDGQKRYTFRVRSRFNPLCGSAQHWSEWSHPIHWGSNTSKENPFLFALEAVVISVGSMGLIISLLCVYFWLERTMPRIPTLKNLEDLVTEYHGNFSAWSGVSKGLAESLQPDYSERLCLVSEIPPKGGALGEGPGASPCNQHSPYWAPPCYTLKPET", "design": "AUC of STAT5-P on PD1+ T cells / AUC of STAT5-P on PD1-blocked T cells: unit not given beside the values"}, "[2]": {"molecular_target": "IL-2R on human cells (activated CD4 T cells, PBMC subsets, NK92) (human) (UniProt P14784)", "design": "EC50 on MFI of STAT5-P, PD-1+ CD4 T cells: unit not given beside the values"}, "[3]": {"molecular_target": "IL-2R on human cells (activated CD4 T cells, PBMC subsets, NK92) (human) (UniProt P14784)"}}, "data": [{"substance": "FAP-IL2v", "values": [{"measurement": "AUC of STAT5-P on PD1+ T cells", "setting": "[1]", "result": 144}, {"measurement": "AUC of STAT5-P on PD1-blocked T cells", "setting": "[1]", "result": 142}, {"measurement": "Potency reduction vs PD1-IL2v", "setting": "[1]", "result": 8.13, "unit": "fold"}, {"measurement": "EC50 on MFI of STAT5-P, PD-1+ CD4 T cells", "setting": "[2]", "result": 8530}, {"measurement": "Potency reduction versus PD1-IL2v (MFI)", "setting": "[2]", "result": 12.6, "unit": "fold"}, {"measurement": "Potency reduction versus PD1-IL2v (frequency)", "setting": "[2]", "result": 12.9, "unit": "fold"}, {"measurement": "Percentage of internalization (0.6 nM, activated CD4 T cells, 3 h at 37 C)", "setting": "[3]", "result": 89.8, "unit": "%"}, {"measurement": "Potency reduction vs PD1-IL2v on PD-1+ LAG-3+ T cells", "setting": "[3]", "result": 107, "unit": "fold"}]}]}
